Where a chain is given by its changes, count along the chain named.
T1: Cyno TROP2 (Macaca fascicularis, UniProt A0A2K5UE71)
T1 construct: Construct used in the measurement is not described; also called cynomolgus TROP2
T1 sequence (antigen): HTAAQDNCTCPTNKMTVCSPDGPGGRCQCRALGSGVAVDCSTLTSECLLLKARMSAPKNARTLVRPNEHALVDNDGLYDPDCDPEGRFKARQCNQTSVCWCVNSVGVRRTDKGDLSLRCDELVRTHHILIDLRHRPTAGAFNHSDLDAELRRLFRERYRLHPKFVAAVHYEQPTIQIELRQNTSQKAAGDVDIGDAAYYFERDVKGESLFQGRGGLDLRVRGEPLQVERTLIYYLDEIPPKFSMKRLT

T2: TROP2 (UniProt P09758 27-274, limits assumed)
T2 construct: also called tumor-associated calcium signal transducer 2; TACSTD2
T2 sequence (looked up): T1 sequence (antigen) with V36M, E46K, N67S, V204I

B1: 1F11-1A3.315[Trop2]_H1.1_L1 (antibody, V domains shown)
VH: QVQLVQSGAEVKKPGASVKVSCKASGYTLTRYYMHWVRQAPGQGLEWMGIINPGGGSTGYAQKFQGRVTMTRDTSTSTVYMELSSLRSEDTAVYYCARDDVVAADVFDYWGQGTLVTVSS
VL: not shown
B2: 1F11-1A3.315[Trop2]_H1.24_L1 (antibody, V domains shown)
VH: B1 VH with L29F, G59D
VL: not shown
B3: 1F11-1A3.315[Trop2]_H1.4_L1 (antibody, V domains shown)
VH: B1 VH with L29F, V102T
VL: not shown
B4: 1F11-1A3.315[Trop2]_H1.30_L1 (antibody, V domains shown)
VH: B1 VH with M34V, N52E, G59L, V102T
VL: not shown
B5: 1F11-1A3.315[Trop2]_H1.20_L1 (antibody, V domains shown)
VH: B1 VH with N52E, G59S, V102T
VL: not shown
B6: 1F11-1A3.315[Trop2]_H1.25_L1 (antibody, V domains shown)
VH: B1 VH with L29F, G59L
VL: not shown
B7: 1F11-1A3.315[Trop2]_H1.28_L1 (antibody, V domains shown)
VH: B1 VH with N52E, G59L, V102T
VL: not shown
B8: 1F11-1A3.315[Trop2]_H1.31_L1 (antibody, V domains shown)
VH: B1 VH with M34V, N52E, G59D, A103K
VL: not shown
B9: 1F11-1A3.315[Trop2]_H1.18_L1 (antibody, V domains shown)
VH: B1 VH with N52E, G59T, V102T
VL: not shown
B10: 1F11-1A3.315[Trop2]_H1.15_L1 (antibody, V domains shown)
VH: B1 VH with L29F, V102T, A103K
VL: not shown
B11: 1F11-1A3.315[Trop2]_H1.6_L1 (antibody, V domains shown)
VH: B1 VH with N52E
VL: not shown
B12: 1F11-1A3.315[Trop2]_H1.11_L1 (antibody, V domains shown)
VH: B1 VH with L29F, N52E, V102T
VL: not shown
B13: 1F11-1A3.315[Trop2]_H1.3_L1 (antibody, V domains shown)
VH: B1 VH with L29F, G59T
VL: not shown
B14: 1F11-1A3.315[Trop2]_H1.9_L1 (antibody, V domains shown)
VH: B1 VH with A103K
VL: not shown
B15: 1F11-1A3.315[Trop2]_H1.5_L1 (antibody, V domains shown)
VH: B1 VH with L29F, A103K
VL: not shown
B16: 1F11-1A3.315[Trop2]_H1.26_L1 (antibody, V domains shown)
VH: B1 VH with L29F, V102M
VL: not shown
B17: 1F11-1A3.315[Trop2]_H1.29_L1 (antibody, V domains shown)
VH: B1 VH with M34V, N52E, G59D, V102T
VL: not shown
B18: 1F11-1A3.315[Trop2]_H1.14_L1 (antibody, V domains shown)
VH: B1 VH with L29F, G59T, A103K
VL: not shown
B19: 1F11-1A3.315[Trop2]_H1.7_L1 (antibody, V domains shown)
VH: B1 VH with G59T
VL: not shown
B20: 1F11-1A3.315[Trop2]_H1.12_L1 (antibody, V domains shown)
VH: B1 VH with L29F, N52E, A103K
VL: not shown
B21: 1F11-1A3.315[Trop2]_H1.27_L1 (antibody, V domains shown)
VH: B1 VH with N52E, G59D, V102T
VL: not shown
B22: 1F11-1A3.315[Trop2]_H1.21_L1 (antibody, V domains shown)
VH: B1 VH with N52E, G59S, A103K
VL: not shown
B23: 1F11-1A3.315[Trop2]_H1.22_L1 (antibody, V domains shown)
VH: B1 VH with N52E, G59S, V102T, A103K
VL: not shown
B24: 1F11-1A3.315[Trop2]_H1.13_L1 (antibody, V domains shown)
VH: B1 VH with L29F, G59T, V102T
VL: not shown
B25: 1F11-1A3.315[Trop2]_H1.8_L1 (antibody, V domains shown)
VH: B1 VH with V102T
VL: not shown
B26: 1F11-1A3.315[Trop2]_H1.16_L1 (antibody, V domains shown)
VH: B1 VH with N52E, V102T
VL: not shown
B27: 1F11-1A3.315[Trop2]_H1.17_L1 (antibody, V domains shown)
VH: B1 VH with N52E, A103K
VL: not shown
B28: 1F11-1A3.315[Trop2]_H1.2_L1 (antibody, V domains shown)
VH: B1 VH with L29F, N52E
VL: not shown
B29: 1F11-1A3.315[Trop2]_H1.23_L1 (antibody, V domains shown)
VH: B1 VH with L29F, M34V
VL: not shown
B30: 1A7_H1.106_IGKV1-39_L1 (Fab, V domains shown)
VH: EVQLLESGGGLVQPGGSLRLSCAASGFTFSSYYMSWVRQAPGKGLEWVSTISERGDSTYYADSVKGRFTISRDNSKNTLYLQMNSLRAEDTAVYYCAKSGPGLRQVGFDYWGQGTLVTVSS
VL: not shown
notes: also called 1A7[CD28]_H1.106 paired with IGKV1-39 germline VL (1F11-1A3.315 L1)
B31: 1A7_H1.111_IGKV1-39_L1 (Fab, V domains shown)
VH: B30 VH with G55S
VL: not shown
notes: also called 1A7[CD28]_H1.111 paired with IGKV1-39 germline VL (1F11-1A3.315 L1)
B32: 1A7_H1.113_IGKV1-39_L1 (Fab, V domains shown)
VH: B30 VH with G55T
VL: not shown
notes: also called 1A7[CD28]_H1.113 paired with IGKV1-39 germline VL (1F11-1A3.315 L1)
B33: 1A7_H1.107_IGKV1-39_L1 (Fab, V domains shown)
VH: B30 VH with R54S, G55S, S57V
VL: not shown
notes: also called 1A7[CD28]_H1.107 paired with IGKV1-39 germline VL (1F11-1A3.315 L1)

Molecular target: T1, Cyno TROP2
Test: not stated; bivalent format

Kd [nM]	koff [s⁻¹]	kon [M⁻¹ s⁻¹]	Binder
2.7	0.00073	270000	B1
11	0.0026	250000	B2
9.4	0.0021	220000	B3
3.7	0.00055	150000	B4
1.7	0.00059	340000	B5
14	0.0027	190000	B6
2.1	0.00055	270000	B7
0.48	0.00014	300000	B8
0.93	0.00034	370000	B9
5.1	0.0016	310000	B10
1.5	0.00042	290000	B11
2.6	0.00079	300000	B12
8.6	0.002	230000	B13
1.4	0.00046	320000	B14
4.5	0.0014	320000	B15
6.2	0.0015	250000	B16
2.1	0.00038	190000	B17
3.7	0.0013	360000	B18
2.8	0.00077	280000	B19
1.1	0.00038	360000	B20
1.2	0.00047	390000	B21
0.81	0.00031	390000	B22
0.7	0.00028	400000	B23
2.8	0.00084	300000	B24
3.1	0.00077	250000	B25
1.5	0.00047	310000	B26
0.81	0.00028	350000	B27
2.5	0.00067	270000	B28
11	0.0026	230000	B29

Molecular target: T2, TROP2
Test: not stated; bivalent format

Kd [nM]	koff [s⁻¹]	kon [M⁻¹ s⁻¹]	Binder
2	0.00048	240000	B1
5.7	0.0013	240000	B2
6.7	0.0011	180000	B3
2.2	0.00037	170000	B4
1.1	0.00035	320000	B5
8.5	0.0014	170000	B6
1.9	0.00036	210000	B7
0.43	0.00013	300000	B8
0.66	0.0002	320000	B9
4.1	0.00091	230000	B10
0.77	0.00025	320000	B11
1.5	0.00051	340000	B12
6	0.0012	200000	B13
1.7	0.0004	240000	B14
3.4	0.00081	240000	B15
4.6	0.00088	190000	B16
2.1	0.00029	150000	B17
2.6	0.00077	290000	B18
1.9	0.00053	280000	B19
1.3	0.00033	270000	B20
0.93	0.00028	330000	B21
1.5	0.00032	210000	B22
0.55	0.00021	380000	B23
1.7	0.00051	330000	B24
2.7	0.0006	230000	B25
1.1	0.00029	270000	B26
0.62	0.00017	270000	B27
2	0.00047	250000	B28
7.2	0.0012	170000	B29

Molecular target: T3, human CD28 (human, UniProt P10747 19-152, limits assumed)
T3 construct: also called Cluster of Differentiation 28; Tp44
Test: Octet, monovalent KD of Fab

Kd [nM]	Binder
43	B30
20	B31
29	B32
57	B33

Source: patent US20250084179A1 (Xencor, published 2025)
